Experimental data published in article PMC9810211.

Biological target: SeTau-405 fluorescently labeled BOA (Burkholderia oklahomensis)
Experiment: other fluorescence titration

Q: With “SARS-CoV-2 Spike protein (Hexapro S) (from UniProt P0DTC2) (natural protein)” as the substance, how does the half-saturation point read?
A: The half-saturation point was 30 to 60 nM.
